Source: patent US6472171

Tests used:
[1] = biological target: T1, chicken protein disulfide isomerase, P09102
T1 chain: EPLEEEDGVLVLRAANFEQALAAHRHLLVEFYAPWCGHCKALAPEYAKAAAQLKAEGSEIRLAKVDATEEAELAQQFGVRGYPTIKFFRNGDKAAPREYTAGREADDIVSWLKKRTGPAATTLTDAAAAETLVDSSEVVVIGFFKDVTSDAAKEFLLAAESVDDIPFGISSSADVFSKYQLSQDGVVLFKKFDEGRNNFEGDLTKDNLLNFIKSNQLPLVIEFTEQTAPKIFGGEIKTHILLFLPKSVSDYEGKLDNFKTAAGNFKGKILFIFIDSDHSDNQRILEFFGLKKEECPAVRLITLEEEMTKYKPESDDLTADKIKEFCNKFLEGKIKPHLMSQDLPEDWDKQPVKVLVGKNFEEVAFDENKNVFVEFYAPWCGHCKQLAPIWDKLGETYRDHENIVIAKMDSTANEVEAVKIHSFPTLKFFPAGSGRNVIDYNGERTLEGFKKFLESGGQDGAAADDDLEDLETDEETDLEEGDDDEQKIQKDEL

[2] = biological target: human protein disulfide isomerase, P07237
Sequence of human protein disulfide isomerase, P07237 (P07237 18-508): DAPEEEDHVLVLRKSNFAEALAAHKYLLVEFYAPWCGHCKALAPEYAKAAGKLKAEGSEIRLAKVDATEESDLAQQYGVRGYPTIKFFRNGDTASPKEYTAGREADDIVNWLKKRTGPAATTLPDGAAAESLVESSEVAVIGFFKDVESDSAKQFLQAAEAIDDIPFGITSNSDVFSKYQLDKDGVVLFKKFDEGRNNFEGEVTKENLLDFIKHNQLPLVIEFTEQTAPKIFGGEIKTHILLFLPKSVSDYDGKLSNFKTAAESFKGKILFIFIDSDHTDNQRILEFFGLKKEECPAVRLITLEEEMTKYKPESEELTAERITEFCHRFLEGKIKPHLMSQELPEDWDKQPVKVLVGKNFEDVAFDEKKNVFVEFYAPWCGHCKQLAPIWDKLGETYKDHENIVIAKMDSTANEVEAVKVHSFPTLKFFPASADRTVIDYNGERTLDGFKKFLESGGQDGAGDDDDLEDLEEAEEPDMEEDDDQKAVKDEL

B1: chicken prolyl 4-hydroxylase subunit (protein)
chain: HTDFFTSIGHMTDLINTEKDLVISKLKDYIKAEESKLEQIKKWAEKLDKLTDTATKDPEGFLGHPANAFKLMKRLNTEWGELESLVLKDMSDGFISNMTIQRQFFPNDEDQTGARKALLRLQDTYNLDTDTLSRGNLPGVKHKSFLTAEDCFELGKIRYTEADYYHTELWMEQALKQLDEGEVSSADKVYILDYLSYAVYQQGDLSKAMMLTKRLLELDPEHQRANGNMKYFEYIMAKEKEANKSSTDAEDQTDKETEVKKKDYLPERRKYEMLCRGEGLKMTPRRQKRLFCRYYDGNRNPRYILGPVKQEDEWDKPRIVRFLDIISDEEIETVKELAKPRLSRATVHDPETGKLTTAHYRVSKSAWLSGYESPVVSRINTRIQDLTGLDVSTAEELQVANYGVGGQYEPHFDFGRKDEPDAFKELGTGNRIATWLFYMSDVSAGGATVFPEVGASVWPKKGTAVFWYNLFPSGEGDYSTRHAACPVLVGNKWVSNKWLHERGQEFRRPCTLSELE
production of hydroxylated, heterotrimeric type 1 procollagen in yeast (plasmid Gp5563, cPDI/cP4-H) [1]: produce levels of hydroxylated heterotrimeric procollagen equal to that found with plasmid Gp5511

B2: human prolyl 4-hydroxylase subunit (protein)
chain: HPGFFTSIGQMTDLIHTEKDLVTSLKDYIKAEEDKLEQIKKWAEKLDRLTSTATKDPEGFVGHPVNAFKLMKRLNTEWSELENLVLKDMSDGFISNLTIQRQYFPNDEDQVGAAKALLRLQDTYNLDTDTISKGNLPGVKHKSFLTAEDCFELGKVAYTEADYYHTELWMEQALRQLDEGEISTIDKVSVLDYLSYAVYQQGDLDKALLLTKKLLELDPEHQRANGNLKYFEYIMAKEKDVNKSASDDQSDQKTTPKKKGVAVDYLPERQKYEMLCRGEGIKMTPRRQKKLFCRYHDGNRNPKFILAPAKQEDEWDKPRIIRFHDIISDAEIEIVKDLAKPRLRRATISNPITGDLETVHYRISKSAWLSGYENPVVSRINMRIQDLTGLDVSTAEELQVANYGVGGQYEPHFDFARKDEPDAFKELGTGNRIATWLFYMSDVSAGGATVFPEVGASVWPKKGTAVFWYNLFASGEGDYSTRHAACPVLVGNKWVSNKWLHERGQEFRRPCTLSELE
production of hydroxylated, heterotrimeric type 1 procollagen in yeast (plasmid Gp5565, hPDI/hP4-H) [2]: < 3 times lower
production of hydroxylated, heterotrimeric type 1 procollagen in yeast (plasmid Gp5511, cPDI/hP4-H) [1]: Plasmid Gp5511 (cPDI/hP4-H) generated the first hydroxylated type 1 (α1α2) procollagen expressed in yeast
